This passage reports percent of VEGF released from the Aβ/VEGF complex after 3 days results from patent US20080293922A1.

The experiment addresses β-amyloid peptide Aβ1-40 (Homo sapiens (Human)) (UniProt P05067). In words: Dissociation of 125I-VEGF165 from resuspended Aβ1-40/VEGF co-aggregate, radioactivity in supernatant.

Sequence of Vascular endothelial growth factor VEGF165 (P15692 other isoform, or with tags, fused parts or gaps): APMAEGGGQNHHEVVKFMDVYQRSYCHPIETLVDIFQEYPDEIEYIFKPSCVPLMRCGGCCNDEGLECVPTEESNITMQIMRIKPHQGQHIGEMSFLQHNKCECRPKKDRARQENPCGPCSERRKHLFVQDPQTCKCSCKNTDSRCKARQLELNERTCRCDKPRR

As to “Vascular endothelial growth factor VEGF165 (from UniProt P15692 207-395) (ligand)”, the percent of VEGF released from the Aβ/VEGF complex after 3 days is less than 1.5%.
